assay: yeast display, Sf9 membrane polyspecificity reagent, FACS + sequencing; frameworks hold sequencing errors
Outline: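 Galactose-induced (36–48 hours) yeast carrying a synthetic nanobody display library were exposed to 10% biotinylated, detergent-solubilized Sf9 membrane reagent at 4 °C for 1 hour. FACS followed streptavidin microbead enrichment, using low and high (top ~1%) gates for expression (anti-HA) and reagent binding (streptavidin). Colony PCR, MiSeq 2 × 250 sequencing and CDR-length filtering followed. Labels for polyreactivity reflect the gate of origin.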

Row | Sequence | polyreactivity (PSR sort gate)
1 | QVQLVESGGGLVQAGGSLRLSCAASGSIFVGYAMGWYRLAPGKERELVASITNGDSTNYADSVKGRFTISRDNAKNTVYLQMNSLKPEDTAVYYCAADYYSFHPSGWYGYEYWGQGTQVTVSS | low polyreactivity
2 | QVQLVESGGGLVQAGGSLRLSCAASGSIFVGYAMGWYRQAPGKERELVAAISKSGGSTYYADSVKGRFTISRDNAKNTDYLQMNSLKPEDTAVYYCATRTHRRGNYLSITHEYWGQGTQVTVSS | high polyreactivity
3 | QVQLVESGGGLVQAGGSLRLSCAASGSIFVGYAMGWYRQAPGKEREWVAAIRSGGSTKYADSVKGRFTISRDNAKNTVYLQMNSLKPEDTAVYYCNVEVHPYYWVDNFQRFPVLHNYWGQGTQVTVSS | low polyreactivity
4 | QVQLVESGGGLVQAGGSLRLSCAASGSIFVGYDMGWYRQAPGKERELVAAISWRGVGTYYADSVKGRCTISRDNAKNTVYLQMNSLKPEDTAVYYCAARWTVPRDSAPSKGYDYWGQGTQVTVSS | low polyreactivity
5 | QVQLVESGGGLVQAGGSLRLSCAASGSIFVHNAMGWYRQAPGKERELVAAITWSGGSTYYADSVKGRFTISRDNAKNTVYLQMNSLKPEDTAVYYCNATYSVRYYLEFLNEPEMDYWGQGTQVTVSS | low polyreactivity
6 | QVQLVESGGGLVQAGGSLRLSCAASGSIFVINAMGWYRQAPGKERELVAAIDWSGDSTYYADSVKVRFTISRDNAKNTVYLEMNSLKPEDTAVYYCAADLDSRGTYGRYEYWGQGTQVTVSS | low polyreactivity
7 | QVQLVESGGGLVQAGGSLRLSCAASGSIFVIYAMGWYRQAPGKERELVAAISRSGGRTYYADSVKGRFTISRDNAKTTVYLQMNSLKPEDTAVYYCAAEGSTYQGAPGVYYWGQGTQVTVSS | high polyreactivity
8 | QVQLVESGGGLVQAGGSLRLSCAASGSIFVIYAMGWYRQAPGKERELVATISGGGGTNYADSVKGRFTISRDNAKNTVYLQMNSLNPEDTAVYYCAARSKVHRWRKRYDYWGQGTQVTVSS | high polyreactivity
9 | QVQLVESGGGLVQAGGSLRLSCAASGSIFVKNAMGWYRQAPGKEREFVAAITTSGGSTNYADSVKGRFTISLDNAKNTVYLQMNSLKPEDTAVYYCNTDIFPAAYDYWGQGTQVTVSS | low polyreactivity
10 | QVQLVESGGGLVQAGGSLRLSCAASGSIFVKNAMGWYRQAPGKERELVARITYSGGSTYYADSVKGRFTISRDNAKNTVYLQMNSLKPEDTAVYYCAARYWYFPQTYYPGNDYWGQGTQVTVSS | high polyreactivity
11 | QVQLVESGGGLVQAGGSLRLSCAASGSIFVLNAMGWYRPAPGKDRELVAAITNVGSTYYADSVKGRFTISRDNAKNTVYLQMNSRKPEDTAVYYCNADPAEVLVGYDYWGQGTQVTVSS | low polyreactivity
12 | QVQLVESGGGLVQAGGSLRLSCAASGSIFVLNAMGWYRQAPGKERELVAAITNVGSTYYADSVKGRFTISRDNAKNTVYLQMNSLKPEDTAVYYCVAKGHLYSGGYEYYYWGQGTQVTVSS | low polyreactivity
13 | QVQLVESGGGLVQAGGSLRLSCAASGSIFVLYAMGWYRQAPGKEREFVAAISWSGDSTYYADSVKGRFTISRDNAKNTVFLQMNSLKPEDTAVYYCAVYGYRTKYGYWGQGTQVTVSS | high polyreactivity
14 | QVQLVESGGGLVQAGGSLRLSCAASGSIFVNYAMGWYRQAPGKERELVAAITSRGTRTYYADSVKGRFTISRDNAKNTVYLQMNSLKPEDTAVYYCAAKQVSRGVAAYDYWGQGTQVTVSS | high polyreactivity
15 | QVQLVESGGGLVQAGGSLRLSCAASGSIFVPNAMGWYRQAPGNERELVADLTRRGGSTYYADSVKGRFTISRDNAKNTVYLQMNSLKPEDTAVYYCNATYLTRSTRLSDFDYWGQGTQVTVSS | high polyreactivity
16 | QVQLVESGGGLVQAGGSLRLSCAASGSIFVPNTMGWYRQAPGKERELVAAIRFSSGRTYYADSVKGRFTISRDNAKNTVYLQMNSLKPEVTAVYYCAADPRYSSGITYTRFYYWGQGTQVTVSS | high polyreactivity
17 | QVQLVESGGGLVQAGGSLRLSCAASGSIFVPYAMGWYRQAPGKERELVAAINHGGGRTYADSVKGRFTISRDNAKNTVYLQMNSLKPEDTAVYYCAADGAHKFGYYRYYYWGQGTQVTVSS | low polyreactivity
18 | QVQLVESGGGLVQAGGSLRLSCAASGSIFVPYAMGWYRQAPGKERELVAAISNGDSTYYADSVKGRFTISRDNAKNTVYLQMNSLKPEDTAVYYCATRGIPDDNARDYWGQGTQVTVSS | low polyreactivity
19 | QVQLVESGGGLVQAGGSLRLSCAASGSIFVPYAMGWYRQAPGKERELVAAITWSGSSTYYADSVKGRFTISRDNAKNTVYLQMNSLKPEDTAVYYCAADYFDWEGNGYYYWGQGTQVTVSS | high polyreactivity
20 | QVQLVESGGGLVQAGGSLRLSCAASGSIFVQNAMGWYRQAPGTERELVAVINSGDSTNYADSVKGRFTISRDNAKNTVDLQMNSLKPEDTAVYYCAVDDVSYYYLRAYNYELSWYCSGLDYWGQGTQVTVSS | low polyreactivity
21 | QVQLVESGGGLVQAGGSLRLSCAASGSIFVQYAMGWYRQAPGKERELVAAISRGGGRTYYADSVKGRFTISRDNANNTVYLQMNSLKPEDTAVYYCAADSRPRDDYWGQGTQVTVSS | high polyreactivity
22 | QVQLVESGGGLVQAGGSLRLSCAASGSIFVRNAMGWYRQAPGKERELVAAITATGGRTYYADSVKGRFTISRDNAKNTVYLQMNSLKPEDTAVYYCAAYYPRSGYDYWGQGTQVTVSS | high polyreactivity

Row | Sequence | polyreactivity (PSR sort gate)
23 | QVQLVESGGGLVQAGGSLRLSCAASGSIFVRNGMGWYIQAPGKERELVASITSGTITYYADSVKGRFTISRDNAKNTVYLQMNSLKPEDTAVYYCAARRDRGRVKFYYWGQGTQVTVSS | high polyreactivity
24 | QVQLVESGGGLVQAGGSLRLSCAASGSIFVRNGMGWYRQAPGKERELVASITSGTITYYADSVKGRFTISRDNAKNTVYLQINSLKPEDTAVYYCNAGCRSSRFKRPYFRERNYWGQGTQVTVSS | high polyreactivity
25 | QVQLVESGGGLVQAGGSLRLSCAASGSIFVRYAMGWYRQAPGKERQLVASIRSRGDSTYYADSVKGRFTISRDNAKNTVYLQMNSLKPEETAVYYCAARRYPPRMDYWGQGTQVTVSS | high polyreactivity
26 | QVQLVESGGGLVQAGGSLRLSCAASGSIFVRYTMAWYRQAPGKERELVAAISWGGGSTYYADSVKGRFTISRDNAKYTVYLQMNSLKPEDTAVYFCNKRYIQLYDYWGQGTQVTVSS | low polyreactivity
27 | QVQLVESGGGLVQAGGSLRLSCAASGSIFVSEYVMGLSRPAPGKERELVARIRWSSGSTYYADSVKGRFTISRDNAKNTVYLQIYSLKPEDTAVYYCNKDYYYVIGWTYHRSYHYDYWGQGTQVTVSS | low polyreactivity
28 | QVQLVESGGGLVQAGGSLRLSCAASGSIFVSYAMVWYRQAPGKERELVAAITRSGGSTYYADSVKGRFTISRDNAKNTVYLQMNSLKPEDTAVYYCAARSYLGAYRRYYWGQGTQVTVSS | high polyreactivity
29 | QVQLVESGGGLVQAGGSLRLSCAASGSIFVSYARGWYRQAPGKERELVAAITGRTGSTYYADSVKGRFTISRDNAKNTVYLQMNSLKAEDTGVYYCAARHKQHNRYDYWGQGTKVTVSS | low polyreactivity
30 | QVQLVESGGGLVQAGGSLRLSCAASGSIFVTNAMGWYRQAPGKERELVAAINQGGGSTYYADSVKGRFTISRDNAKNTVYLQMNSLKPEDTAVYYCATDAPYFVPFSTNGEFGDEYWGQGTQVTVSS | low polyreactivity
31 | QVQLVESGGGLVQAGGSLRLSCAASGSIFVTNAMGWYRQAPGKERELVAAISVSGGSTYYADSVKGRFTISRDNAKNTVYLQMNSLKPEDTGVYYCAADGYIGWRHIYEYWGQGTQVTVSS | low polyreactivity
32 | QVQLVESGGGLVQAGGSLRLSCAASGSIFVTYAMGSYRQAPGKERELVAAITSIGGTTYYSDSVKGRFTISRDNAKNTVYLQMNSLKPEDTAVYYCAVDGGEFSSYGYWGQGTEVTVSS | low polyreactivity
33 | QVQLVESGGGLVQAGGSLRLSCAASGSIFVTYAMGWYRQAPGKERELVAAISTSGGSTYADSVKGRFTISRDNAKNTVYLQMNSLKPEDTAVYYCNADDPGYAVPWYWFKYDYWGQGTQVTGSS | low polyreactivity
34 | QVQLVESGGGLVQAGGSLRLSCAASGSIFVTYAMGWYRQAPGKERELVAAITGRDGITYADSVKGRFTISCDNAKNTVYVQMNSLKPEDTAVYYCAAVSHGVYYQYRRRYYSWGQGTQVTVSS | high polyreactivity
35 | QVQLVESGGGLVQAGGSLRLSCAASGSIFVVYAMGWYRQAPGKERELVAAITADDDTNYADSVKGRFTISRDNAKNTDYLQMNSLKPEDTAVYYCAKEVWLAINTRTGYEVYYWGQGTQVTVSS | low polyreactivity
36 | QVQLVESGGGLVQAGGSLRLSCAASGSIFVWNARGWYRQAPVKERELVAAISYTDGSTYYADFVKGRFTISRDNAKNTVYLQMNSLKPEDTAVYFCAAAITRSYTGSEYDYWGQGTEVTVSS | low polyreactivity
37 | QVQLVESGGGLVQAGGSLRLSCAASGSIFVWYAMGWYRQEPGKERELVATISSRGGTTYYADSVKGRFTISRDNAKNTVYLQMNSLKPEDTAVYYCNAKRRAQYGYRVFRYDYWGQGTQVTVSS | high polyreactivity
38 | QVQLVESGGGLVQAGGSLRLSCAASGSIFVWYDLGWYRQAPGKERELVATISLSGVSTYYADSVKGRFTISRDNAKNTVYLQMNSLKPEDTAVYYCAADFVEQGEDDYWGQGTQVTVSS | low polyreactivity
39 | QVQLVESGGGLVQAGGSLRLSCAASGSIFVYNAMGWYRQAPGKERELVAAITTGGSTNYADSVKGRFTISRDNAKNTVYLQMNSLKPEDTAVYDCNAVHEASYAGVDYWGQGTQVTVSS | low polyreactivity
40 | QVQLVESGGGLVQAGGSLRLSCAASGSIFVYNAMGWYRQAPGKERELVAAITWSGGNTYYADSVKGRFTISRDNAKNTVYLEMNSLKPEDTAVSYCPAEFWQQGGWWEYDYWGQGTQVTVSS | low polyreactivity
41 | QVQLVESGGGLVQAGGSLRLSCAASGSIFVYNAMGWYRQAPVKERELVAVITLRSGSTNYADSVKGRFTISRDNEKNTVYLQMNSLKPEDTAVYYCAADDTYHDYQRDTDDDYWGQGTQVTVSS | low polyreactivity
42 | QVQLVESGGGLVQAGGSLRLSCAASGSIFVYYAMGWYRQAPGKERELVAAISSTGGRTYYADSVKGRFTISRDNAKNTVYLQMNSLKPEDTAVYYCNAARTGYRYYDWFYDYDYWGQGTQVTVSS | low polyreactivity
43 | QVQLVESGGGLVQAGGSLRLSCAASGSIFVYYSMGWYRQAPGKERELVATISSGASTYYADSVKGRFTISRDNAKNTVYLQMNSLKPEDTAVYYCNADNLAGSVEHDYWGQGTQVTVSS | low polyreactivity

— the nanobody polyreactivity screen of Harvey et al. (2022)
